Results taken from patent US20200062856A1 (XDCEXPLORER SHANGHAI, published 2020).
Changes are numbered by the printed parent chain. Read-outs that look alike come from different tables or passages of the source.

Assays:
[1] = molecular target: T1, human TPBG protein, full-length, on the cell surface (human, UniProt Q13641 32-420); assay: cell-based or functional assay
T1 sequence (looked up): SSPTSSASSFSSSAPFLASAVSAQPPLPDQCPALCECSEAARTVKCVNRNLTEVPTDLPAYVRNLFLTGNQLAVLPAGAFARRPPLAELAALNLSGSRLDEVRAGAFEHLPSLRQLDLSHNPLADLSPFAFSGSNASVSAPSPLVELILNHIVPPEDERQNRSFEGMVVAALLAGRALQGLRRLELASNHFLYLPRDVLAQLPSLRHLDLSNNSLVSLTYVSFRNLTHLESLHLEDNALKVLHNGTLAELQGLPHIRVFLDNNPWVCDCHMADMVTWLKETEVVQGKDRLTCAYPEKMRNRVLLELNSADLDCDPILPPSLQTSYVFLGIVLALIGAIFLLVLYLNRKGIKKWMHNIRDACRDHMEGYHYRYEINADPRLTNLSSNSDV

[2] = molecular target: T2, mouse TPBG protein, full-length, on the cell surface (mouse, UniProt Q9Z0L0 32-426); assay: FACS on CHO-k1 cells with surface-expressed mouse TPBG, fluorescent secondary antibody, mean fluorescence intensity
T2 construct: whole, on cells; also called mTPBG; CHOk1-mTPBG
T2 sequence (looked up): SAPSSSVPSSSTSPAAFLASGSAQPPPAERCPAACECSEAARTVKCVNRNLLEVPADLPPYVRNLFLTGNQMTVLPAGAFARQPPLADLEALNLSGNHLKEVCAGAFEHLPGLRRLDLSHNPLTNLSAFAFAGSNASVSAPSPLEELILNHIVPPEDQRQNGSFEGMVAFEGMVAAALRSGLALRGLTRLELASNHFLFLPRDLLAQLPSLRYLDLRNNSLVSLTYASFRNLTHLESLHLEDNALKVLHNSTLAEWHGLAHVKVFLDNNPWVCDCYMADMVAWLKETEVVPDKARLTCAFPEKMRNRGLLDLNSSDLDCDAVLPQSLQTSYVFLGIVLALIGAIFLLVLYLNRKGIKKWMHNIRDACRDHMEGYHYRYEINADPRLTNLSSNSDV

[3] = molecular target: T3, cynomolgus TPBG protein, full-length, on the cell surface (cynomolgus, UniProt Q4R8Y9 35-420); assay: FACS on CHOK1-cTPBG cells
T3 construct: whole, on cells; also called cTPBG; CHOk1-cTPBG
T3 sequence (looked up): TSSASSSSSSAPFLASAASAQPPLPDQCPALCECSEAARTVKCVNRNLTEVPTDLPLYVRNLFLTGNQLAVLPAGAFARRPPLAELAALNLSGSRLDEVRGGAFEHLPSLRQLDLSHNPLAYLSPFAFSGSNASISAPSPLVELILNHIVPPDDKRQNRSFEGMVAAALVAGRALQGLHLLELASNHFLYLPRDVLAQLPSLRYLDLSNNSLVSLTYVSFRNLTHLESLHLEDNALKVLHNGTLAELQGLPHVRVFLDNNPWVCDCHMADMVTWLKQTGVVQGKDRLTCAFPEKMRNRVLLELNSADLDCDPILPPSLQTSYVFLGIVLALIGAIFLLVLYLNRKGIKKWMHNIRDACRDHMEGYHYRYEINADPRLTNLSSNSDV

human TPBG-hFc protein = molecular target: T4, human TPBG-hFc protein (human, UniProt Q13641 32-355); assay: ELISA, coated human TPBG-hFc
T4 construct: range 32-355; Expressed in HEK293 cells, purified on protein A; also called immunogen A; hFc tagged TPBG protein; not shown: human IgG Fc fragment of the pCpC vector
T4 sequence (looked up): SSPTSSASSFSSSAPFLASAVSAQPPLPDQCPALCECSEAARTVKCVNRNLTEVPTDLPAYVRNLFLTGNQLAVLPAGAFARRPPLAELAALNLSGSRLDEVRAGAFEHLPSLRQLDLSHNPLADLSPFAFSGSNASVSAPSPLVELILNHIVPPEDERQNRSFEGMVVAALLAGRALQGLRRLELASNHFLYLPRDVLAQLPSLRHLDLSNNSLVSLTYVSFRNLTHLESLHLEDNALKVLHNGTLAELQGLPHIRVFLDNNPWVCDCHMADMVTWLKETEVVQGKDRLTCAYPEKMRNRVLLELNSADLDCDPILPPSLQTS
Description: The purified human TPBG-hFc obtained from step (1) diluting with PBS to a final concentration of 1.0 μg/mL was aliquoted into a 96-well ELISA plate at 100 μL per well, and sealed with a parafilm and incubated at 4° C. overnight. The plate was washed twice with plate washing buffer (PBS containing 0.01% (v/v) Tween 20), and blocked with blocking buffer (PBS containing 0.01% (v/v) Tween 20 and 1% (w/w) BSA) at room temperature for 2 h. The blocking buffer was discarded, and […] per well of the purified antibody TPBG was added. After incubating at 37° C. for 2 h, the plate was washed for three times with plate washing buffer (PBS containing 0.01% (v/v) Tween 20). HRP (horseradish peroxidase)-labeled secondary antibody (purchased from Sigma) was added and incubated at 37° C. for 2 h, and the plate was washed for three times using plate washing buffer (PBS containing 0.01% (v/v) Tween 20). 100 μL of TMB substrate was aliquoted into each well, incubated at room temperature for 30 min, and 100 μL of stop buffer (1.0 N HCl) per well was subsequently added. A_{450 nm} values were read using the ELISA plate reader (SpectraMax 384plus purchased from Molecular Device), and the results were shown in Table 5. […] In Table 5 the IgG control herein is a mice IgG control, the data in the Table are OD_{450 nm} values, and Blank represents the OD_{450 nm} value of PBS buffer in the plate.
The purified humanized TPBG antibody obtained from Embodiment 1 was reacted with human TPBG-hFc, for the method, see (5) Identification of lead antibody in Embodiment 1. The EC50 in Table 11 and Table 12 are calculated according to the OD450 nm value of the h12B12 variants and the h28D4 variants, respectively. […] FIGS. 7A and 7B are the binding reactions of purified humanized h12B12 variants to human TBPG-hFc protein, and FIGS. 8A and 8B are the binding reactions of the purified humanized h28D4 variants to human TBPG-hFc protein.

[4] = molecular target: T1, human TPBG protein, full-length, on the …; assay: FACS on CHOK1-hTPBG cells
[5] = molecular target: T5, human TPBG antigen immobilized on a CM5 chip (human, UniProt Q13641 32-355, limits assumed); assay: SPR (Biacore), human TPBG antigen immobilized on CM5 chip
T5 sequence (looked up): T4 sequence (looked up)
Description: To assess the binding specificity and affinity of the humanized anti-TPBG antibody, Biacore analysis was performed using human TPBG antigen immobilized on a CM5 chip. Biacore technique utilizes the change in the refractive index of surface layer after antibody binding to the TPBG antigen immobilized on the surface layer. The binding was determined by surface plasmon resonance (SPR) through detecting the laser refracted from the surface. Non-specific and specific interactions were distinguished by analysis of signal kinetics binding rate and dissociation rate. Chimeric antibodies 12B12 and 28D4 were used as controls.

[6] = molecular target: T1, human TPBG protein, full-length, on the …; assay: cell-based or functional assay; remark: listed apart in the source

B1: Chimeric Antibody 12B12-MMAF (antibody, V domains shown)
VH: DVQLVESGGGLVQPGGSRKLSCAASGFTFSNFGMHWVRQAPEKGLEWVAYISSGSTSFYYADTVKGRFTISRDNPKNTLFLQMTSLRSEDTAMYYCSRTNSLLRGFFDAWGAGTTVTVSS
VL: DIVLTQSPASLAVSLGQRATISCRASQSVSSSSYTYLHWYQQKPGQPPKLLIKSASNLESGVPARFSGTGSGTDFTLNIHPVEEEDTATYYCQHSWEIPLTFGAGTKLELK
modifications: MC-MMAF on cysteines reduced with TCEP (sites not given), DAR 3.0-5.0 per antibody
**Q.** For B1, which “IC50 of cell killing, NCI-H1568 cells (CellTiter-Glo, 5 days)” value [1] is on record?
**A.** 0.063 nM

B2: Chimeric antibody 12B12 (antibody, V domains shown)
VH: B1 VH
VL: B1 VL
notes: Mouse variable domains on human IgG1 heavy and human kappa light constant regions; also called c12B12; TPBG chimeric antibody 12B12
**Q.** Does B2 bind [2]?
**A.** no binding (tested: 100 nM)

**Q.** What about the EC50 [3] of the same binder?
**A.** 0.67 nM

**Q.** What about the EC50 (human TPBG-hFc protein) of the same binder?
**A.** 0.137 nM

**Q.** And the EC50 [4]?
**A.** 0.33 nM

**Q.** And the Kd [5]?
**A.** 0.0102 nM

**Q.** And the koff [5]?
**A.** 1.64e-05 s⁻¹

**Q.** And the kon [5]?
**A.** 1.61e+06 M⁻¹ s⁻¹

B3: Humanized Antibody 12B12-12-MMAF (antibody, V domains shown)
VH: EVQLVESGGGLVQPGGSLRLSCAASGFTFSNFGMHWVRQAPGKGLEWVSYISSGSTSFYYADTVKGRFTISRDNAKNSLYLQMNSLRDEDTAVYYCARTNSLLRGFFDAWGQGTTVTVSS
VL: DIVLTQTPLSLSVTPGQPASISCRASQSVSSSSYTYLHWYLQKPGQPPQLLIKSASNLESGVPDRFSGSGSGTDFTLKISRVEAEDVGVYYCQHSWEIPLTFGQGTKLEIK
modifications: MC-MMAF on cysteines reduced with TCEP (sites not given), DAR 3.0-5.0 per antibody
**Q.** Which results are given for B3?
**A.** IC50 of cell killing, MDA-MB-468 cells (CellTiter-Glo, 5 days) [6]: 0.06 nM; IC50 of cell killing, NCI-H1568 cells (CellTiter-Glo, 5 days) [6]: 0.05 nM; IC50 of cell killing, NCI-H1975 cells (CellTiter-Glo, 5 days) [6]: 0.13 nM; IC50 of cell killing, NCI-H1568 cells (CellTiter-Glo, 5 days) [1]: 0.066 nM

B4: Humanized antibody 12B12-15 (antibody, V domains shown)
VH: B3 VH with L11V, G16R, S49A, A75S, S78T, D88A
VL: B3 VL
notes: also called h12B12-15
**Q.** What does the source list for B4?
**A.** binding result [2]: no binding (tested: 100 nM); EC50 [3]: 0.87 nM; EC50 (human TPBG-hFc protein): 0.193 nM; EC50 [4]: 0.37 nM; Kd [5]: < 0.00566 nM; koff [5]: < 1e-05 s⁻¹; kon [5]: 1.77e+06 M⁻¹ s⁻¹

B5: Humanized Antibody 12B12-15-MMAF (antibody, V domains shown)
VH: B3 VH with L11V, G16R, S49A, A75S, S78T, D88A
VL: B3 VL
modifications: MC-MMAF on cysteines reduced with TCEP (sites not given), DAR 3.0-5.0 per antibody
**Q.** For B5, which “IC50 of cell killing, NCI-H1568 cells (CellTiter-Glo, 5 days)” value [1] is on record?
**A.** 0.058 nM

B6: Humanized antibody 12B12-12 (antibody, V domains shown)
VH: B3 VH
VL: B3 VL
notes: also called h12B12-12
**Q.** Does B6 bind [2]?
**A.** no binding (tested: 100 nM)

**Q.** And the EC50 [3]?
**A.** 10.3 nM

**Q.** What about the EC50 (human TPBG-hFc protein) of the same binder?
**A.** 0.206 nM

**Q.** And the EC50 [4]?
**A.** 0.33 nM

**Q.** And the Kd [5]?
**A.** 0.0186 nM

**Q.** What about the koff [5] of the same binder?
**A.** 2.29e-05 s⁻¹

**Q.** What about the kon [5] of the same binder?
**A.** 1.23e+06 M⁻¹ s⁻¹
